Assay [1] has as its target T1, biotinylated CD3 epsilon epitope peptide (UniProt P07766 22-48, biotinylated).
T1 chain: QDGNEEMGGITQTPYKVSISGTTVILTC
Briefly: SPR (Biacore); biotinylated CD3 epsilon epitope peptide on chip via streptavidin, antibody as analyte.

The target in assay [2] is T2, biotin-labeled human CD137 fused to human IgG1 Fc fragment (human CD137-Fc) (human, biotin-labeled).
T2 construct: also called biotin-human CD137-Fc
As to the kind of experiment: bead ELISA on biotin-human CD137-Fc; decrease of signal with free CD3 epsilon as competitor against free Fc.

The target in assay [3] is T2, biotin-labeled human CD137 fused to …. Briefly: bead ELISA on biotin-human CD137-Fc, 250 ng IgG; free CD3 epsilon 62.5 pmol as competitor.
For assay [4] the target is unchanged. As to the kind of experiment: bead ELISA on biotin-human CD137-Fc, 250 ng IgG; free human IgG1 Fc 62.5 pmol as control competitor.
Assay [5] addresses T3, biotin-labeled human CD137 fused to human IgG1 Fc fragment (human, biotin-labeled).
T3 construct: also called human CD137-Fc; biotin-human CD137-Fc
As to the kind of experiment: bead ELISA, IgG on biotin-human CD137-Fc; signal with free CD3e 62.5 pmol against free Fc 62.5 pmol.

Assay [6] concerns the target T3, biotin-labeled human CD137 fused to …. Briefly: bead ELISA (chemiluminescence), IgG on biotin-human CD137-Fc on streptavidin beads; control competitor free human Fc 62.5 pmol.
The target is the same in assay [7]. As to the kind of experiment: bead ELISA (chemiluminescence), IgG on biotin-human CD137-Fc on streptavidin beads; competitor free CD3 epsilon 62.5 pmol.

Where “and” joins values, the source holds several entries; their conditions need not be identical. Identical values can stand only once.

B1: CE115HA000 V11L/D72A/L78I/D101Q with GGSGGS inserted between Kabat positions 99 and 100, one-arm antibody (antibody, V domains shown)
VH: QVQLVESGGGLVQPGRSLRLSCAASGFTFSNAWMHWVRQAPGKGLEWVAQIKAKSNNYATYYAESVKGRFTISRADSKNSIYLQMNSLKTEDTAVYYCRYVHYGAGGSGGSYYGVQAWGQGTTVTVSS
VL: DIVMTQSPLSLPVTPGEPASISCRSSQSLVHSNRNTYLHWYQQKPGQAPRLLIYKVSNRFSGVPDRFSGSGSGTDFTLKISRVEAEDVGVYYCGQGTQVPYTFGQGTKLEIKR
For B1, the Kd in assay [1] is 34.6 nM and 31.1 nM.

B2: CE115HA000 V11L/D72A/L78I/D101Q with GGSGGSGGS inserted between Kabat positions 99 and 100, one-arm antibody (antibody, V domains shown)
VH: QVQLVESGGGLVQPGRSLRLSCAASGFTFSNAWMHWVRQAPGKGLEWVAQIKAKSNNYATYYAESVKGRFTISRADSKNSIYLQMNSLKTEDTAVYYCRYVHYGAGGSGGSGGSYYGVQAWGQGTTVTVSS
VL: DIVMTQSPLSLPVTPGEPASISCRSSQSLVHSNRNTYLHWYQQKPGQAPRLLIYKVSNRFSGVPDRFSGSGSGTDFTLKISRVEAEDVGVYYCGQGTQVPYTFGQGTKLEIKR
Consider B2, for which the Kd in assay [1] was 43.9 nM and 35.4 nM.

B3: CE115HA000 V11L/D72A/L78I/D101Q with GGSGGGS inserted between Kabat positions 99 and 100, one-arm antibody (antibody, V domains shown)
VH: QVQLVESGGGLVQPGRSLRLSCAASGFTFSNAWMHWVRQAPGKGLEWVAQIKAKSNNYATYYAESVKGRFTISRADSKNSIYLQMNSLKTEDTAVYYCRYVHYGAGGSGGGSYYGVQAWGQGTTVTVSS
VL: DIVMTQSPLSLPVTPGEPASISCRSSQSLVHSNRNTYLHWYQQKPGQAPRLLIYKVSNRFSGVPDRFSGSGSGTDFTLKISRVEAEDVGVYYCGQGTQVPYTFGQGTKLEIKR
Regarding B3, the Kd in assay [1] is 43.5 nM and 34.3 nM.

B4: dBBDu193/L127 (antibody, V domains shown)
VH: QVQLVESGGGLVQPGRSLRLSCAASGFTFSNAWMHWVRQAPGKGLEWVAQIKDRSNQYATYYAPSVKGRFTISRDDSKNSIYLQMNSLKTEDTAVYYCHYVHYSAASTLLPSFGVDAWGQGTTVTVSS
VL: DIVMTQSPLSLPVTPGEPASISCRASEELLHINRHIFLHWYQQKPGQAPRLLIYKVYNRFTGVPDRFSGSGSGTDFTLKISRVEAEDVGVYYCAQGTSVPFTFGQGTKLEIK
notes: also called dBBDu_193 / dBBDu.L127
B4 returned a Signal decrease in assay [2] of 59.4%. Moreover, the “ELISA signal with Free CD3e 62.5 pmol” value in assay [3] is 2470. In addition, in assay [4], the “ELISA signal with Free Fc 62.5 pmol” value amounted to 6080.

B5: dBBDu193/L132 (antibody, V domains shown)
VH: QVQLVESGGGLVQPGRSLRLSCAASGFTFSNAWMHWVRQAPGKGLEWVAQIKDRSNQYATYYAPSVKGRFTISRDDSKNSIYLQMNSLKTEDTAVYYCHYVHYSAASTLLPSFGVDAWGQGTTVTVSS
VL: DIVMTQSPLSLPVTPGEPASISCQTSEELVHINRFIFLHWYQQKPGQAPRLLIYKVSNRFSGVPDRFSGSGSGTDFTLKISRVEAEDVGVYYCAQGTSVPFTFGQGTKLEIK
notes: also called dBBDu_193 / dBBDu.L132
Regarding B5, the Signal decrease in assay [2] amounted to 91%. Also, the “ELISA signal with Free CD3e 62.5 pmol” value in assay [3] came out at 10400. Besides, the “ELISA signal with Free Fc 62.5 pmol” value in assay [4] came to 116000.

B6: dBBDu189/L126 (antibody, V domains shown)
VH: QVQLVESGGGLVQPGRSLRLSCAASGFTFSNAWMHWVRQAPGKGLEWIAQIKDRSNQYATYYAPSVKGRFTISRDDSKNSIYLQMNSLKTEDTAVYYCHYVHYAQASSLLPSFGVDAWGQGTTVTVSS
VL: DIVMTQSPLSLPVTPGEPASISCRTSEELLHINRYIFLHWYQQKPGQAPRLLIYKVQNRFSGVPDRFSGSGSGTDFTLKISRVEAEDVGVYYCAQGSAVPFTFGQGTKLEIK
Regarding B6, the Signal decrease in assay [2] was 87%. Besides, the “ELISA signal with Free CD3e 62.5 pmol” value in assay [3] was 9750. Also, in assay [4], the “ELISA signal with Free Fc 62.5 pmol” value was found to be 75100.

B7: CE115HA000 V11L/D72A/L78I/D101Q without insertion, one-arm antibody (antibody, human IgG1, kappa, L234A L235A, N297A, name in Kabat numbering)
heavy: QVQLVESGGGLVQPGRSLRLSCAASGFTFSNAWMHWVRQAPGKGLEWVAQIKAKSNNYATYYAESVKGRFTISRADSKNSIYLQMNSLKTEDTAVYYCRYVHYGAYYGVQAWGQGTTVTVSSASTKGPSVFPLAPSSKSTSGGTAALGCLVKDYFPEPVTVSWNSGALTSGVHTFPAVLQSSGLYSLSSVVTVPSSSLGTQTYICNVNHKPSNTKVDKKVEPKSCDKTHTCPPCPAPEAAGGPSVFLFPPKPKDTLMISRTPEVTCVVVDVSHEDPEVKFNWYVDGVEVHNAKTKPREEQYASTYRVVSVLTVLHQDWLNGKEYKCKVSNKALPAPIEKTISKAKGQPREPQVYTLPPSRCELTKNQVSLSCAVKGFYPSDIAVEWESNGQPENNYKTTPPVLDSDGSFFLVSKLTVDKSRWQQGNVFSCSVMHEALHNHYTQKSLSLSPDYKDDDDK
chain: EPKSSDKTHTCPPCPAPELLGGPSVFLFPPKPKDTLMISRTPEVTCVVVDVSHEDPEVKFNWYVDGVEVHNAKTKPREEQYNSTYRVVSVLTVLHQDWLNGKEYKCKVSNKALPAPIEKTISKAKGQPREPQVCTLPPSRDELTKNQVSLWCLVKGFYPSDIAVEWESNGQPENNYKTTPPVLDSDGSFFLYSKLTVDKSRWQQGNVFSCSVMHEALHNRYTQKSLSLSP
light: DIVMTQSPLSLPVTPGEPASISCRSSQSLVHSNRNTYLHWYQQKPGQAPRLLIYKVSNRFSGVPDRFSGSGSGTDFTLKISRVEAEDVGVYYCGQGTQVPYTFGQGTKLEIKRTVAAPSVFIFPPSDEQLKSGTASVVCLLNNFYPREAKVQWKVDNALQSGNSQESVTEQDSKDSTYSLSSTLTLSKADYEKHKVYACEVTHQGLSSPVTKSFNRGEC
notes: one-arm antibody; also called No insertion
In turn, B7 yielded a dissociation constant (Kd) in assay [1] of 6.96 nM.

B8: CE115HA000 (unaltered), one-arm antibody with GLS3000 (antibody, human IgG1, kappa, L234A L235A, N297A)
heavy: QVQLVESGGGVVQPGRSLRLSCAASGFTFSNAWMHWVRQAPGKGLEWVAQIKAKSNNYATYYAESVKGRFTISRDDSKNSLYLQMNSLKTEDTAVYYCRYVHYGAYYGVDAWGQGTTVTVSSASTKGPSVFPLAPSSKSTSGGTAALGCLVKDYFPEPVTVSWNSGALTSGVHTFPAVLQSSGLYSLSSVVTVPSSSLGTQTYICNVNHKPSNTKVDKKVEPKSCDKTHTCPPCPAPEAAGGPSVFLFPPKPKDTLMISRTPEVTCVVVDVSHEDPEVKFNWYVDGVEVHNAKTKPREEQYASTYRVVSVLTVLHQDWLNGKEYKCKVSNKALPAPIEKTISKAKGQPREPQVYTLPPSRCELTKNQVSLSCAVKGFYPSDIAVEWESNGQPENNYKTTPPVLDSDGSFFLVSKLTVDKSRWQQGNVFSCSVMHEALHNHYTQKSLSLSPDYKDDDDK
chain: EPKSSDKTHTCPPCPAPELLGGPSVFLFPPKPKDTLMISRTPEVTCVVVDVSHEDPEVKFNWYVDGVEVHNAKTKPREEQYNSTYRVVSVLTVLHQDWLNGKEYKCKVSNKALPAPIEKTISKAKGQPREPQVCTLPPSRDELTKNQVSLWCLVKGFYPSDIAVEWESNGQPENNYKTTPPVLDSDGSFFLYSKLTVDKSRWQQGNVFSCSVMHEALHNRYTQKSLSLSP
light: DIVMTQSPLSLPVTPGEPASISCRSSQSLVHSNRNTYLHWYQQKPGQAPRLLIYKVSNRFSGVPDRFSGSGSGTDFTLKISRVEAEDVGVYYCGQGTQVPYTFGQGTKLEIKRTVAAPSVFIFPPSDEQLKSGTASVVCLLNNFYPREAKVQWKVDNALQSGNSQESVTEQDSKDSTYSLSSTLTLSKADYEKHKVYACEVTHQGLSSPVTKSFNRGEC
For B8, in assay [1], the Kd turned out to be 110 nM.

B9: dBBDu_H115/L016 (antibody, human IgG1, V domains shown)
VH: QVQLVESGGGLVQPGRSLRLSCAASGFTFSNAWMHWVRQAPGKGLEWVAQIKDKANSYNTYYAPSVKGRFTISRDDSKNSIYLQMNSLKTEDTAVYYCRYVHYGSSYGFLFAGYGVDAWGQGTTVTVSS
VL: DIVMTQSPMSLPVTPGEPASISCQSSESLLHANRNTYLHWYQQKPGQAPRLLIYKVSNRFNGVPDRFSGSGSGTDFTLKISRVEAEDVGVYYCAQGTANPYTFGQGTKLEIK
notes: Full length IgG (human IgG1 CH1-Fc heavy chain, kappa light chain)
Turning to B9, the Signal decrease in assay [5] was 96.7%. Further, the “ELISA signal with Free Fc 62.5 pmol” value in assay [6] is 46800. The “ELISA signal with Free CD3e 62.5 pmol” value in assay [7] amounted to 1540.

B10: dBBDu_H115/L035 (antibody, human IgG1, V domains shown)
VH: QVQLVESGGGLVQPGRSLRLSCAASGFTFSNAWMHWVRQAPGKGLEWVAQIKDKANSYNTYYAPSVKGRFTISRDDSKNSIYLQMNSLKTEDTAVYYCRYVHYGSSYGFLFAGYGVDAWGQGTTVTVSS
VL: DIVMTQSPLSLPVTPGEPASISCAASESLLHTNRNTYLHWYQQKPGQAPRLLIYKVSNRFSGVPDRFSGSGSGTDFTLKISRVEAEDVGVYYCAQGTQSPFTFGQGTKLEIK
notes: as for B9
Consider B10, for which the Signal decrease in assay [5] was 97.9%. For the same molecule, in assay [6], the “ELISA signal with Free Fc 62.5 pmol” value is 70600. Moreover, in assay [7], the “ELISA signal with Free CD3e 62.5 pmol” value came to 1470.

The values above are taken from US20240270846A1 (published 2024).
